Measured values reported in PMC3794980.

How the values were obtained:
[1] = target: HLA-DR DRB1*1302 (human (endogenous in EBV transformed cell lines)); experiment: radioligand binding
[2] = target: HLA-DR DRB1*0101 (human (endogenous in EBV transformed cell lines)); experiment: radioligand binding
[3] = target: HLA-DR DRB5*0101 (human (endogenous in EBV transformed cell lines)); experiment: radioligand binding
[4] = target: HLA-DR DRB3*0101 (human (endogenous in EBV transformed cell lines)); experiment: radioligand binding
[5] = target: HLA-DR DRB1*1101 (human (endogenous in EBV transformed cell lines)); experiment: radioligand binding
[6] = target: HLA-DR DRB1*0301 (human (endogenous in EBV transformed cell lines)); experiment: radioligand binding
[7] = target: HLA-DR DRB1*1501 (human (endogenous in EBV transformed cell lines)); experiment: radioligand binding
[8] = target: HLA-DR DRB1*0401 (human (endogenous in EBV transformed cell lines)); experiment: radioligand binding
[9] = target: HLA-DR DRB1*0901 (human (endogenous in EBV transformed cell lines)); experiment: radioligand binding
[10] = target: HLA-DR DRB1*0802 (human (endogenous in EBV transformed cell lines)); experiment: radioligand binding
[11] = target: HLA-DR DRB1*0405 (human (endogenous in EBV transformed cell lines)); experiment: radioligand binding
[12] = target: HLA-DR DRB1*0404 (human (endogenous in EBV transformed cell lines)); experiment: radioligand binding
[13] = target: HLA-DR DRB4*0101 (human (endogenous in EBV transformed cell lines)); experiment: radioligand binding
[14] = target: HLA-DR DRB1*0701 (human (endogenous in EBV transformed cell lines)); experiment: radioligand binding
[15] = target: HLA class II molecule DRB1*1501 (human (endogenous in EBV transformed homozygous cell lines)); experiment: radioligand binding
HLA-A2:Ig fusion protein = experiment: fluorescence polarisation

Row | Substance | IC50 [1] | IC50 [2] | IC50 [3] | IC50 [4] | IC50 [5] | IC50 [6] | IC50 [7] | IC50 [8] | IC50 [9] | IC50 [10] | IC50 [11] | IC50 [12] | IC50 [13] | IC50 [14] | IC50 [15] | IC50 (HLA-A2:Ig fusion protein)
1 | DENV3 NS5 564-580 (peptide) | 11.3 nM | 18.8 nM | 305 nM | 576 nM | 344 nM | 222 nM | 28 nM | 390 nM | 100 nM |  |  |  |  |  |  | 
2 | DENV3 NS5 714-729 (peptide) | 10.6 nM |  | 245 nM |  | 671 nM | 36.8 nM | 66.3 nM |  | 690 nM |  |  |  |  |  |  | 
3 | DENV3 NS1 117-131 (peptide) |  |  |  | 534 nM |  |  |  | 28.1 nM |  | 56.3 nM | 285 nM | 695 nM |  |  |  | 
4 | DENV3 NS5 221-237 (peptide) | 65.4 nM | 3.97 nM |  |  | 30.9 nM | 15 nM | 19.9 nM | 1.05 nM | 44.9 nM | 5.83 nM | 25 nM | 84.3 nM | 60.4 nM | 20.7 nM |  | 
5 | DENV3 NS5 233-248 (peptide) | 34 nM | 108 nM | 413 nM |  | 15.9 nM |  | 307 nM | 57 nM |  | 159 nM | 699 nM |  | 617 nM |  |  | 
6 | DENV3 NS3_(357–371) (peptide) |  |  |  |  |  |  |  |  |  |  |  |  |  |  | < 20 nM | 
7 | DENV3 NS1 85-99 (peptide) | 483 nM | 55.8 nM |  |  | 807 nM | 533 nM | 21.2 nM | 87.7 nM | 41.9 nM |  |  |  |  | 70.1 nM |  | 
8 | DENV3 NS5 477-493 (peptide) |  | 11.7 nM | 56.2 nM | 25.9 nM |  |  |  | 67.1 nM | 78.7 nM |  | 54.4 nM | 124 nM | 274 nM | 26.2 nM |  | 
9 | DENV3 NS3 277-291 (peptide) | 68.2 nM | 383 nM |  | 4.42 nM |  | 37.3 nM |  | 142 nM |  | 396 nM | 402 nM |  |  |  |  | 
10 | DENV3 NS5 769-785 (peptide) | 4.5 nM | 27.9 nM | 113 nM |  | 78.7 nM | 409 nM |  | 3.61 nM | 61.2 nM | 27.6 nM | 15.9 nM | 92.6 nM | 212 nM |  |  | 
11 | DENV3 NS3 309-323 (peptide) |  | 27 nM |  |  |  |  | 363 nM | 2.36 nM | 129 nM | 30.8 nM | 32.1 nM | 350 nM | 9.15 nM | 47.8 nM |  | 
12 | DENV3 NS3 297-311 (peptide) |  |  |  |  | 35.3 nM |  |  | 16.4 nM |  |  | 90 nM | 127 nM |  | 77.2 nM |  | 
13 | DENV4 inter-serotype variant of NS3_(399–407) (peptide) |  |  |  |  |  |  |  |  |  |  |  |  |  |  |  | 61 nM
14 | DENV3 Env_(106–114) (peptide) |  |  |  |  |  |  |  |  |  |  |  |  |  |  |  | 2.9 nM
15 | DENV3 NS5 866-882 (peptide) | 543 nM |  |  |  | 421 nM | 178 nM | 148 nM |  | 66.1 nM | 7.14 nM |  |  |  |  |  | 
16 | DENV3 NS5 719-735 (peptide) | 229 nM | 214 nM |  |  |  | 44.1 nM |  |  |  |  | 22.5 nM | 190 nM |  |  |  | 
17 | DENV3 NS3 433-447 (peptide) | 23.7 nM |  |  | 134 nM |  | 68.6 nM |  |  |  |  |  |  |  |  |  | 
18 | DENV3 Env_(126–140) (peptide) |  |  |  |  |  |  |  |  |  |  |  |  |  |  | < 20 nM | 
19 | DENV3 NS1 169-183 (peptide) |  | 226 nM |  | 747 nM |  |  | 441 nM | 474 nM | 650 nM |  | 277 nM | 457 nM | 878 nM | 136 nM |  | 
20 | DENV3 Envelope 41-55 (peptide) | 27.2 nM | 2.33 nM | 684 nM |  |  |  |  |  | 132 nM | 5.08 nM |  |  | 6.51 nM | 3.13 nM |  | 
21 | DENV3 NS5 765-779 (peptide) | 4.92 nM | 40.8 nM | 726 nM | 127 nM |  |  | 118 nM |  | 61.2 nM | 7.85 nM |  |  |  |  |  | 
22 | DENV3 Envelope 156-170 (peptide) |  | 463 nM |  |  |  |  |  | 7.66 nM |  |  | 45.5 nM | 444 nM | 707 nM |  |  | 
23 | DENV3 NS3 353-367 (peptide) |  |  |  |  |  |  |  |  |  |  | 884 nM | 858 nM |  | 87.4 nM |  | 
24 | DENV3 Envelope 161-175 (peptide) | 68.3 nM |  |  |  |  |  |  | 115 nM |  | 62.9 nM | 691 nM |  |  | 509 nM |  | 
25 | DENV3 NS3 237-251 (peptide) |  |  | 12.9 nM |  | 807 nM |  | 638 nM | 13.1 nM | 928 nM | 35.8 nM | 150 nM | 310 nM |  |  |  | 
26 | DENV3 Env_(231–245) (peptide) |  |  |  |  |  |  |  |  |  |  |  |  |  |  | < 20 nM | 
27 | DENV3 NS5 747-763 (peptide) |  | 53.7 nM |  |  |  |  | 167 nM |  | 393 nM |  | 38.6 nM | 111 nM |  |  |  | 
